These results are taken from patent publication US6583276 (TECHNION RESEARCH AND DEVELOPMENT, dated 2003).

The experiment has as its target T1, KDR/flk-1 VEGF receptor of HUVEC cells (human, UniProt P35968 20-1356).
T1 construct: whole, on cells; Endogenous receptor on confluent HUVEC cells
Briefly: overview table, row 'Binding to Flk-1 and Flt-1 receptors'.

T1 sequence (P35968 20-1356): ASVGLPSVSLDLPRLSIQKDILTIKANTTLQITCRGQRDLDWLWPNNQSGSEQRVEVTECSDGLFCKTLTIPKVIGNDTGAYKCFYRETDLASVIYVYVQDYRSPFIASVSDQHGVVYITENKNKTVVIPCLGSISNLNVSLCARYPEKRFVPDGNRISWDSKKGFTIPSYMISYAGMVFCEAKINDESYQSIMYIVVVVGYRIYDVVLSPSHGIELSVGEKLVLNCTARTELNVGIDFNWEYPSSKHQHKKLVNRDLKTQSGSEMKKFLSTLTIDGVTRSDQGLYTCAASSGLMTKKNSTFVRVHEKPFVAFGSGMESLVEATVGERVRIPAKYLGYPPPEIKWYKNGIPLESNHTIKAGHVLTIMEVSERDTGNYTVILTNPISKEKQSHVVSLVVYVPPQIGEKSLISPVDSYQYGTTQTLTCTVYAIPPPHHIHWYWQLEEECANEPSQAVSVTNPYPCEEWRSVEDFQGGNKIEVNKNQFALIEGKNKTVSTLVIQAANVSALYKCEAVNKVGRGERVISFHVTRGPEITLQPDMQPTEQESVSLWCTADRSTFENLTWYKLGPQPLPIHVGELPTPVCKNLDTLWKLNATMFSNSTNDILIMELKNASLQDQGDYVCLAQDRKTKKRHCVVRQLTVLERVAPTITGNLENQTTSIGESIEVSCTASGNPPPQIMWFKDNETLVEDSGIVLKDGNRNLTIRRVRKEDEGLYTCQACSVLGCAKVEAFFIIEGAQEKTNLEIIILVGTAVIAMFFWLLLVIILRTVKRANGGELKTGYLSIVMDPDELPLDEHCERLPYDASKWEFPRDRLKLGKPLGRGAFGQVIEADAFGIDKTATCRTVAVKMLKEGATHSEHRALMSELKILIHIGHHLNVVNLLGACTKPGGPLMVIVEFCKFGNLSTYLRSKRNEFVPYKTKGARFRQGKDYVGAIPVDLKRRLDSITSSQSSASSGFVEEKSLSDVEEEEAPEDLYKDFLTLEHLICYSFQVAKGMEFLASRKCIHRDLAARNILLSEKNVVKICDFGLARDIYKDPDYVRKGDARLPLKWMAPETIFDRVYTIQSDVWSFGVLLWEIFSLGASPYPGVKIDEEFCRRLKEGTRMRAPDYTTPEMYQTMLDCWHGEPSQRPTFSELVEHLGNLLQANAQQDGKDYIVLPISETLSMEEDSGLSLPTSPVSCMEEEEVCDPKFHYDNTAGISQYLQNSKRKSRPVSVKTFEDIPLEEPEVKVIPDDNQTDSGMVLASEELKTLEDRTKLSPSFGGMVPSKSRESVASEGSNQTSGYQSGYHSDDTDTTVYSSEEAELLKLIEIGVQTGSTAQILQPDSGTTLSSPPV

B1: VEGF121 (ligand, human, UniProt P15692-9 27-147, looked up)
chain: APMAEGGGQNHHEVVKFMDVYQRSYCHPIETLVDIFQEYPDEIEYIFKPSCVPLMRCGGCCNDEGLECVPTEESNITMQIMRIKPHQGQHIGEMSFLQHNKCECRPKKDRARQEKCDKPRR
notes: mature; VEGF121 isoform of VEGF-A
With B1, the binding result was “binds”.

B2: VEGF145 (recombinant human vascular endothelial growth factor form of 145 amino acids, exons 1-5, 6a and 8) (ligand)
chain: APMAEGGGQNHHEVVKFMDVYQRSYCHPIETLVDIFQEYPDEIEYIFKPSCVPLMRCGGCCNDEGLECVPTEESNITMQIMRIKPHQGQHIGEMSFLQHNKCECRPKKDRARQEKKSVRGKGKGQKRKRKKSRYKSWSVCDKPRR
notes: Produced in Sf9 insect cells with a recombinant baculovirus and partially purified on heparin-sepharose; also called r-VEGF
Regarding B2, the binding result is given as “binds”.
